Measured values published in US6867012B2, “Determination method of biological component and reagent kit used therefor” (Toyo Boseki Kabushiki Kaisha, priority 2000, dated 2005).

Test: Activity measurement of betaine-homocysteine methyltransferase (methionine produced, absorbance at 520 nm)
Assay type: biochemical
Conditions: 37° C., 1 h, pH 7.5; 1 U = 1 μmole of methionine per 1 h
Experimental: • reagent A 50 mM potassium phosphate buffer (pH 7.5) • reagent B 100 mM DL-homocysteine solution (dissolved in reagent A) • reagent C 100 mM betaine (dissolved in reagent A) • reagent D 0.2% aqueous pentacyanoanmineiron(III) sodium solution • reagent E acetic acid • reagent F 10% aqueous sodium nitrite solution <Measurement Conditions>
After the completion of the reaction, reagent D (5 ml) is added and the mixture is stirred. After standing for 1 min, 1 ml each of reagent E and reagent F were added in this order and the mixture is stirred. After standing for 30 min at room temperature, absorbance at 520 nm is measured. Using L-methionine dissolved in reagent A instead of the enzyme solution, absorbance is measured in the same manner and a standard curve is drawn, from which the amount of methionine produced by the enzymatic reaction is measured.

B1: betaine-homocysteine methyltransferase: Human-derived enzyme (EC 2.1.1.5) expressed from human liver cDNA in E. coli BL21(DE3) and purified (protein, UniProt Q93088 1-406, looked up)
Betaine--homocysteine …: MPPVGGKKAKKGILERLNAGEIVIGDGGFVFALEKRGYVKAGPWTPEAAVEHPEAVRQLHREFLRAGSNVMQTFTFYASEDKLENRGNYVLEKISGQEVNEAACDIARQVADEGDALVAGGVSQTPSYLSCKSETEVKKVFLQQLEVFMKKNVDFLIAEYFEHVEEAVWAVETLIASGKPVAATMCIGPEGDLHGVPPGECAVRLVKAGASIIGVNCHFDPTISLKTVKLMKEGLEAARLKAHLMSQPLAYHTPDCNKQGFIDLPEFPFGLEPRVATRWDIQKYAREAYNLGVRYIGGCCGFEPYHIRAIAEELAPERGFLPPASEKHGSWGSGLDMHTKPWVRARARKEYWENLRIASGRPYNPSMSKPDGWGVTKGTAELMQQKEATTEQQLKELFEKQKFKSQ
With B1 the “specific activity of purified enzyme standard product” value was “about 2.1 U/mg protein”.
